From publication PMC11109247

What was measured:
[1] = biological target: ephrinB2-Fc chimaera (human ephrin-B2 residues 1-229, IEGRMD linker, human IgG1 residues 100-330) (human) (UniProt P52799); test: SDS-PAGE without reduction and boiling
[2] = biological target: ephrinB3-Fc chimaera (human ephrin-B3 residues 28-224, IEGRMD linker, human IgG1 residues 100-330) (human) (UniProt Q15768); test: SDS-PAGE without reduction and boiling
[3] = biological target: soluble NiVMY G ectodomain used for structural determination (residues 72-602, His tag) (Nipah virus Malaysia (NiVMY)) (UniProt Q9IH62); test: negative-stain electron microscopy; soluble NiVMY G ectodomain alone

Chain of ephrinB3-Fc chimaera (human ephrin-B3 residues 28-224, IEGRMD linker, human IgG1 residues 100-330) (Q15768 28-224): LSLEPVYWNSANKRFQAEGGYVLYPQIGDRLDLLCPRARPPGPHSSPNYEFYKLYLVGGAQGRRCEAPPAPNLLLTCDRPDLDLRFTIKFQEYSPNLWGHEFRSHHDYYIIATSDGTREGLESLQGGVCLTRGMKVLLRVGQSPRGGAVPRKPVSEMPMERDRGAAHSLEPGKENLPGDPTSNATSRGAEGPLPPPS
Chain of soluble NiVMY G ectodomain used for structural determination (residues 72-602, His tag) (Q9IH62 72-602): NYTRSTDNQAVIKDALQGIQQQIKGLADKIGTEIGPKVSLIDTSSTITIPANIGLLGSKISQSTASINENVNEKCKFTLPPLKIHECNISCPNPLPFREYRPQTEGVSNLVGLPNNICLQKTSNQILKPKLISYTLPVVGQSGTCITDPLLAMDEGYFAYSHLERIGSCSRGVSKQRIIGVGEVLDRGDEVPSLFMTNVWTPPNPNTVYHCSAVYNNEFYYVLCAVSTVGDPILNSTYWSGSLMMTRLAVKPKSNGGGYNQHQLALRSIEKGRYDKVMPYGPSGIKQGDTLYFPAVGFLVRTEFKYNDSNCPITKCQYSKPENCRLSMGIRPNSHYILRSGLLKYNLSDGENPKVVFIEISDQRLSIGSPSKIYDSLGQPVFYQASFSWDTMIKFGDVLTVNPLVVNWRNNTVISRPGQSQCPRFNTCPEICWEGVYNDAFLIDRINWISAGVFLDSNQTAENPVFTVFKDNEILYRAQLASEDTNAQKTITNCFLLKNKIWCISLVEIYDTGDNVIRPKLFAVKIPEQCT
Chain of ephrinB2-Fc chimaera (human ephrin-B2 residues 1-229, IEGRMD linker, human IgG1 residues 100-330) (P52799 28-229): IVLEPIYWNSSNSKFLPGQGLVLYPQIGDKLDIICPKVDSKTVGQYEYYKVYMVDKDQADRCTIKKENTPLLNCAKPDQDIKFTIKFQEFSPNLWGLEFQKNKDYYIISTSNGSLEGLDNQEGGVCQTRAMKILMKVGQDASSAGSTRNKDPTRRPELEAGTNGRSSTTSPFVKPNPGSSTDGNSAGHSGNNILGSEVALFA

Q: How did the stoichiometry N [1] turn out when “ephrinB2-Fc chimaera (human ephrin-B2 residues 1-229, IEGRMD linker, human IgG1 residues 100-330) (from UniProt P52799 28-229) (Fc fusion)” was run?
A: 2

Q: For “ephrinB3-Fc chimaera (human ephrin-B3 residues 28-224, IEGRMD linker, human IgG1 residues 100-330) (from UniProt Q15768 28-224) (Fc fusion)”, which stoichiometry N [2] is on record?
A: 2

Q: With “soluble NiVMY G ectodomain used for structural determination (residues 72-602, His tag) (from UniProt Q9IH62 72-602) (domain or fragment)” as the substance, how does the stoichiometry N [3] read?
A: 4
